± gives the uncertainty stated by the source.
Assay: self-splicing fitness, log relative to wild type (ln ratio); higher = more splicing; Tetrahymena group I intron in knt gene, E. coli kanamycin selection, DiMSum; sequences stand for … in CUCUCU…GGAGGGAAAAGUUAUCAGGCAUGCACCUGGUAGCUAGUCUUUAAACCAAUAGAUUGCAUCGGUUUAAAAGGCAAGACCGUCAAAUUGCGGGAAAGGGGUCAACAGCCGUUCAGUACCAAGUCUCAGGGGAAACUUUGAGAUGGCCUUGCAAAGGGUAUGGUAAUAAGCUGACGGACAUGGUCCUAACCACGCAGCCAAGUCCUAAGUCAACAGAUCUUCUGUUGAUAUGGAUGCAGUUCACAGACUAAAUGUCGGUCGGGGAAGAUGUAUUCUUCUCAUAAGAUAUAGUCGGACCUCUCCUUAAUGGGAGCUAGCGGAUGAAGUGAUGCAACACUGGAGCCGCUGGGAACUAAUUUGUAUGCGAAAGUAUAUUGAUUAGUUUUGGAGUACUCGUGGUCG
Procedure, shortened: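 Pooled colonies went to amplicon sequencing on an Illumina HiSeq 2500 after six replicate transformations. The plates were LB agar with 100 μg/mL carbenicillin, 50 μM IPTG and 0.2% rhamnose, with or without 25 μg/mL kanamycin, incubated overnight at 37°C or 30°C. The E. coli BL21(DE3) library had all eight P1ex-region intron nucleotides randomised, the intron placed in the knt kanamycin-resistance gene on pET-22b(+). DiMSum fitness is the error-weighted combination of replicate fold changes, kanamycin against none, normalised to wild type.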

Sequence	self-splicing fitness (ln) (30 °C)	self-splicing fitness (ln) (37 °C)
UAACAGCAAUAUUACGUUCG	-0.514 ± 0.057	0.266 ± 0.073
UAACAGCAAUAUUACGUUCU	-1.17 ± 0.08	-0.668 ± 0.079
UAAGAGCAAUAUUACGACGA	-1.72 ± 0.19	-1.61 ± 0.21
UAAGAGCAAUAUUACGACGU	-2.32 ± 0.33	-1.88 ± 0.39
UAAGAGCAAUAUUACGAUCC	-1.81 ± 0.36	
UAAGAGCAAUAUUACGAUCG	-3.62 ± 0.17	-1.53 ± 0.18
UAAGAGCAAUAUUACGAUUC		-0.537 ± 0.43
UAAGAGCAAUAUUACGCGCG	-1.38 ± 0.24	-1.35 ± 0.3
UAAGAGCAAUAUUACGCUGA		-1.15 ± 0.29
UAAGAGCAAUAUUACGCUGC		-1.15 ± 0.37
UAAGAGCAAUAUUACGCUGU	-3.35 ± 0.45	-2.22 ± 0.34
UAAGAGCAAUAUUACGGAGC	-3.44 ± 0.4	
UAAGAGCAAUAUUACGGAGU	-3.26 ± 0.23	-2.21 ± 0.25
UAAGAGCAAUAUUACGGAUA	-2.84 ± 0.44	-1.54 ± 0.4
UAAGAGCAAUAUUACGUAAA	-3.2 ± 0.37	-1.89 ± 0.33
UAAGAGCAAUAUUACGUCCA	-3.08 ± 0.34	-2.4 ± 0.41
UAAGAGCAAUAUUACGUCUU	-3.28 ± 0.2	-1.49 ± 0.18
UAAGAGCAAUAUUACGUGAC	-3.63 ± 0.27	-2.8 ± 0.34
UAAGAGCAAUAUUACGUGCU	-4.59 ± 0.31	-2.09 ± 0.27
UAAGAGCAAUAUUACGUGGC	-4.44 ± 0.27	-2.2 ± 0.2
UAAGAGCAAUAUUACGUGUA	-2.36 ± 0.36	-2.21 ± 0.27
UAAGAGCAAUAUUACGUUAG	-3.43 ± 0.24	-3.1 ± 0.27
UAAGAGCAAUAUUACGUUUA	-2.31 ± 0.12	-1.36 ± 0.13

Sequence	self-splicing fitness (ln) (30 °C)	self-splicing fitness (ln) (37 °C)
UAAUAGCAAUAUUACGAAAA	-2.83 ± 0.26	-1.59 ± 0.15
UAAUAGCAAUAUUACGAACA	-1.07 ± 0.14	-0.685 ± 0.13
UAAUAGCAAUAUUACGAAGA		-2.76 ± 0.31
UAAUAGCAAUAUUACGAAGG	-3.08 ± 0.17	-1.6 ± 0.17
UAAUAGCAAUAUUACGAAUG	-1.37 ± 0.11	-0.382 ± 0.11
UAAUAGCAAUAUUACGACUA	-0.456 ± 0.11	-0.0379 ± 0.13
UAAUAGCAAUAUUACGAGAA		-1.22 ± 0.26
UAAUAGCAAUAUUACGAUCC	-3.33 ± 0.44	
UAAUAGCAAUAUUACGAUCU	-1.4 ± 0.098	-0.601 ± 0.12
UAAUAGCAAUAUUACGAUUG	0.193 ± 0.068	0.0133 ± 0.076
UAAUAGCAAUAUUACGCAAG	-1.92 ± 0.29	-1.04 ± 0.25
UAAUAGCAAUAUUACGCCCG		0.42 ± 0.42
UAAUAGCAAUAUUACGCCUA	-0.175 ± 0.16	0.0899 ± 0.19
UAAUAGCAAUAUUACGCGAA	-3.51 ± 0.24	-0.873 ± 0.14
UAAUAGCAAUAUUACGCGCC	-2.47 ± 0.34	-1.39 ± 0.41
UAAUAGCAAUAUUACGCUCC	-1.74 ± 0.39	-0.899 ± 0.32
UAAUAGCAAUAUUACGGAGU	-4.07 ± 0.27	-2.82 ± 0.22
UAAUAGCAAUAUUACGGCCG	-0.212 ± 0.12	0.0754 ± 0.16
UAAUAGCAAUAUUACGGCUA	0.00533 ± 0.088	0.527 ± 0.094
UAAUAGCAAUAUUACGGCUG	-0.00933 ± 0.11	-0.0273 ± 0.16
UAAUAGCAAUAUUACGGGAG	-2.84 ± 0.17	-3.3 ± 0.22
UAAUAGCAAUAUUACGGGUU	-3.33 ± 0.24	-2.65 ± 0.21

From the supplement of paper PMC7877785
